PMC3729709

Target: recombinant soluble trimeric gp140 from the clade A Ugandan HIV-1 field isolate 94UG018 (HIV-1 clade A isolate 94UG018)
Assay: SEC; final gel filtration on an SD200 column equilibrated with PBS; fractions corresponding to the gp140 trimer collected and pooled

Substance: recombinant soluble trimeric gp140 from the clade A Ugandan HIV-1 field isolate 94UG018 (natural protein)
- stoichiometry N: 3
